Assay results: publication PMC5024086, “Fine-tuning of amino sugar homeostasis by EIIA^Ntr in Salmonella Typhimurium” (Scientific Reports, 2016)

B1: GlmS in solution (SEC-MALS) (enzyme, Salmonella Typhimurium, UniProt Q8ZKX1 1-609, looked up)
chain: MCGIVGAIAQRDVAEILLEGLRRLEYRGYDSAGLAVVDAEGHMTRLRRLGKVQMLAQAAEEHPLHGGTGIAHTRWATHGEPSEANAHPHVSEHIVVVHNGIIENHEPLREALKARGYTFVSETDTEVIAHLVNWELKQGGTLREAVLRAIPQLRGAYGTVIMDTRHPDTLLAARSGSPLVIGLGMGENFIASDQLALLPVTRRFIFLEEGDIAEITRRSVNIFDNTGAEVKRQDIESNLQYDAGDKGIYRHYMQKEIYEQPNAIKNTLTGRISHGQVDLSELGPNADELLSKVEHIQILACGTSYNSGMVSRYWFESLAGIPCDVEIASEFRYRKSAVRRNSLMITLSQSGETADTLAGLRLSKELGYLGSLAICNVPGSSLVRESDLALMTNAGTEIGVASTKAFTTQLTVLLMLVAKLSRLKGLDASIEHDIVHGLQALPSRIEQMLSQDKRIELLAEDFSDKHHALFLGRGDQYPIALEGALKLKEISYIHAEAYAAGELKHGPLALIDADMPVIVVAPNNELLEKLKSNIEEVRARGGQLYVFADQDAGFVSNDNMHIIEMPHVEEVIAPIFYTVPLQLLAYHVALIKGTDVDQPRNLAKSVTVE
notes: D-glucosamine-6-phosphate synthase (GlmS), Salmonella Typhimurium; 128 kDa dimer by SEC-MALS; it may be the same as m7; also called GlmS dimer

Experiments:
[1] = target: GlmS in solution (SEC-MALS) (Salmonella Typhimurium) (UniProt Q8ZKX1); assay: SEC-MALS; Superdex 200 10/300 GL, 20 mM Tris-HCl pH 8.0, 300 mM NaCl, 2 mg protein injected, 0.5 ml/min; proteins alone or in combination
[2] = target: the molecule itself; assay: as above

Row | Molecule | stoichiometry N (EIIA^Ntr per GlmS chain (1:2)) [1] | stoichiometry N [2]
1 | EIIA^Ntr in solution (SEC-MALS) (natural protein) | 0.5 | 
2 | B1 |  | 2
